# Results taken from the nanobody polyreactivity screen of Harvey et al. (2022).
# Experiment: yeast display, Sf9 membrane polyspecificity reagent, FACS + sequencing; frameworks hold sequencing errors
# How it was run: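 A synthetic nanobody library was expressed on Saccharomyces cerevisiae BJ5465 by galactose induction for 36–48 hours. The library was stained for 1 hour at 4 °C with 10% biotinylated, detergent-solubilized Sf9 membrane reagent and enriched with streptavidin microbeads before FACS. Low and high (top ~1%) gates were set on anti-HA fluorescence for expression and streptavidin fluorescence for reagent binding, and each polyreactivity label reflects the gate of origin.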
row,Sequence,polyreactivity (PSR sort gate)
1,QVQLVESGGGLVQAGGSLRLSCAASGYGYVMGWYRQAPGKERELVAAISRSGGSTYYADSVKGRFTISRDNAKNTVYFQMNSLIPEDTAVYDCAARWPGAYHDYGYWGQVTQVTVSS,high polyreactivity
2,QVQLVESGGGLVQAGGSLRLSCAASGYIFALNAMGWYRPAPGKEWELVAAINDSGDSTYYADSVKGRFTISRDNAKNTVYLQMNSLKPEDTAVYYCAAGFSYEWCYPTFDYWGQGTQVTVSS,low polyreactivity
3,QVQLVESGGGLVQAGGSLRLSCAASGYIFASYAMGWYRPAPGKERELVAAISIGGNTNYADSVKGRFTISRDNAKNTVYLQMNSLKPEDTAVYYCAAKTPRYRYGYWRQGTQVTVSS,low polyreactivity
4,QVQLVESGGGLVQAGGSLRLSCAASGYIFATNAMGWYRQSPGKERELVAAITRSGGRTYYADSVKGRFTISRDNAKNTVYLQMNSLKPEDTAVYYCAAARPTNIYYYWGQGTQVTVSS,high polyreactivity
5,QVQLVESGGGLVQAGGSLRLSCAASGYIFATYAMGWYRQAPGKERELVAAISWSGGRTYYADSVKGRFTISRDNAKNTVYLQMNGLKPEVTAVYYCAAQSYSRMDYWGQGTQVTVSS,high polyreactivity
6,QVQLVESGGGLVQAGGSLRLSCAASGYIFAVYAMGWYRQAPGKEREFVAVITWRGGSTYYADSVKGRFTISRDNAKNTVYLQMNSLKPEDTAVYYCAADVYAQYDYWGQGTQVTVSS,high polyreactivity
7,QVQLVESGGGLVQAGGSLRLSCAASGYIFDGNAMGWYRQAPGKERELVAPITWTGGSTYYADSVKGRFTISRDNAKNTVYLQMNSLKPEDTAVYYCAKPYDPGPYHSSYRATDDYWGQGTQVTVSS,low polyreactivity
8,QVQLVESGGGLVQAGGSLRLSCAASGYIFDIYAMGWYRQAPGKERELVAVITRSGGGTYYADSVKGRFTISRDNAKNTVYFQMNSLKPEDTAVYYCAAESYVYGGSDYVYWGQGTEVTVSS,low polyreactivity
9,QVQLVESGGGLVQAGGSLRLSCAASGYIFDRNAMGWYRQAPGKERELLAAITKRGGITYYADSVKGRFTISRDNAKNTVYLQMNSLKPEDTAVYYCAADIGYYVYNDYDYWGQGTQVTVSS,low polyreactivity
10,QVQLVESGGGLVQAGGSLRLSCAASGYIFDVYDMGWYRQAPGKERELVAAITDYADSVKGRFTISRDNAKNTVYLQMNSLKPEDTAVYYCAADTDVLKGTTGFEYWGQGTQVTVSS,low polyreactivity
11,QVQLVESGGGLVQAGGSLRLSCAASGYIFDWNAMGCYRQAPGKERELVAAISSGGRTNYADSVKGRFTISRDNAKNTVYLQMNSLKPEDTAVYYCNTGPYTFDSPEYYYWGQGTQVTVSS,low polyreactivity
12,QVQLVESGGGLVQAGGSLRLSCAASGYIFDYYAMGWYRQAPGKERELVAAISSSGGTTYYADSVKGRFTISRDNAKNTVYLQMNSLKPEDTEVYYCAARKSRWHRGYYYWGQGTQVTVSS,high polyreactivity
13,QVQLVESGGGLVQAGGSLRLSCAASGYIFDYYAMGWYRQAPGKERELVAGISRRGGSTYYADSVKGRFTISRDNAKNTVYLQMNSLKPEDTAVYYCAGLGDDATSYGYWGQGTQVTVSS,high polyreactivity
14,QVQLVESGGGLVQAGGSLRLSCAASGYIFENYALGWYRQAPGKERELVAALSTRGGSTYYADSVKGRFTISRDNAKNTVYLQMNSLKPEDTAVYYCAAADSTGYYYWGQGTQVTVSS,high polyreactivity
15,QVQLVESGGGLVQAGGSLRLSCAASGYIFFTYTMGWYRQAPGKERELVAAINGSVGSTYYADSVKGRFTISRDNAKNTVYLQMNSLKPEDTAVYYCAAEVVDFGYSYEWEDDYWGQGTQVTVSS,high polyreactivity
16,QVQLVESGGGLVQAGGSLRLSCAASGYIFGAYAMGWYRPAPGKERELVAGITASGDSTYYADSVKGRFTISRDNAKNTVYLQMNSLKPEDTAVYYCNAQPDIGLYDRQWKEPYEYWGQGTQVTVSS,low polyreactivity
17,QVQLVESGGGLVQAGGSLRLSCAASGYIFGDYVMGWYRQAPGKERELVAAISSSGDTNYADSVKGRFTISRDNAKNTVYLQMNSLKPEDTAVYYCAAVDWIGRVHGKPWGGDYWGQGTQVTVSS,low polyreactivity
